From the nanobody polyreactivity screen of Harvey et al. (2022)

Assay: yeast display, Sf9 membrane polyspecificity reagent, FACS + sequencing; frameworks hold sequencing errors
Method in brief: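 A nanobody's polyreactivity label depends on the gate it was sorted from. Yeast display cells were stained with 10% biotinylated, detergent-solubilized Sf9 membrane reagent for 1 hour at 4 °C, enriched on streptavidin microbeads and sorted by FACS. The low and high (top ~1%) gates were set on anti-HA fluorescence for expression and streptavidin fluorescence for reagent binding.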

Sequence | polyreactivity (PSR sort gate)
QVHLVESGGGLVQAGGSLRLSCAASGSIFYYNAMGSYRHAPGKERELVAAINWSGDRTYYADSVKGRFTISRDNAKNTVYLQMNSLKPEYTAVYYCAATAWPGRYWRQEVDYWGQGTQVTVSS | high polyreactivity
QVHLVESGGGLVQAGGSLRLSCAASGSILGSNAMGWYRQAPGKERELVAAISSGGSTDYADSVKVRFTISRDNAKNTVYLQMYCLKPEDTAVYYCAAGFIYHYGLYKIYDYYYWGQGTQVTVSS | low polyreactivity
QVHLVESGGGLVQAGGSLRLSCAASGSILSDNTLGWYRQAPGKERELVAAISRSGGTTYYADSVKGRFTISRDNAKNTVYLQMNSLKPEDTAVYYCAARYYYRYNYWGQGTQVTVSS | high polyreactivity
QVHLVESGGGLVQAGGSLRLSCAASGSTFAANAMGWYRQAPGKERELVAAITSSGGSTYYADSVKGRFTISRDNAKNTVYLQMNSLKPEDTAVYYCKKDIERYFRIYDSWGQGTQVTVSS | low polyreactivity
QVHLVESGGGLVQAGGSLRLSCAASGSTFDPNAMGWYTQAPGKERELVAAISYTGGRTYYADSVKGRFTISRDKAKNTVYLQMNSLKPEATAVYYCAVLVVGSPTQDEPYVSGVEHDYWGQGTQVTVSS | low polyreactivity
QVHLVESGGGLVQAGGSLRLSCAASGSTFFIYTMGWYRQAPGKEREFVAAISWTGGRTYYADSVKGRFTISRDNAKNTVFLQMNSLKPEDTAVYYCAARYKYYSYDYWGQGTQVTVSS | high polyreactivity
QVHLVESGGGLVQAGGSLRLSCAASGSTFFLYAMGWYRQAPGKERELVAAISSGGSTYYADSVKGRFTISRDNAKNTVYLQMTRLKPEDTAVYYCARDRIDTTDRTWRGDYWGQGTQATVSS | low polyreactivity
QVHLVESGGGLVQAGGSLRLSCAASGSTFGLKAMGWYRQAPGKEREFVASINFNDGSTYYADSVKGRFTISRDNAKNTVYLQMNSLKPEDPAVYYCAVELWWKWPFYYWGQGTQVTVSS | high polyreactivity
QVHLVESGGGLVQAGGSLRLSCAASGSTFLPNAMGWYRQAPGKERELVAAITNGGGTNYADSVKGRFTISRDNAKNTVYLQMYSLKPEDTAVYYCNADSTYFGGHDYWGPGTQVTVSS | low polyreactivity
QVHLVESGGGLVQAGGSLRLSCAASGSTFNYNAMGWYRQAPGKERELVAAISGSGGSTYYADSVKGRFTISRDNAKNSVYLQMNSLKPEDTAVDYCAGLYGPGRAFDYWGQGTQVTVSS | low polyreactivity
QVHLVESGGGLVQAGGSLRLSCAASGSTFSIYAMGWYRQAPGKERELVAAINSGGDTNYADSVKGRFTISRDNAKNTVYLQMNSLKPEDTAVYYCAKQVYTSRRSRGRYGFGYWGQGTQVTVSS | high polyreactivity
QVHLVESGGGLVQAGGSLRLSCAASGSTFTLNTMGWYRQAPGKERELVAGIRSGGSTYYADSVKGRFTISRDNAKNTVYLQMNSLKPEDTAVYYCAADRRWFAYWFDYWGQGTQVTVSS | low polyreactivity
QVHLVESGGGLVQAGGSLRLSCAASGSTFTPYAMGWYRQAPGKERELVAAITWRTGSTRYADSVKGRFTISRDNAKNTVYLQMNSLKPEDTAVYYCAAKVPRFGAPGVNYWGQGTQVTVSS | high polyreactivity
QVHLVESGGGLVQAGGSLRLSCAASGSTFTYNTMGWYRQAPGKERELVAAITWSGGRTYYADSVKGRFTISRDNAKNTVYLQMNSLKPEDTAVYYCNADSSGVTSAYDYWGQGTQVTVSS | high polyreactivity
QVHLVESGGGLVQAGGSLRLSCAASGSTFTYYAMGWYRQAPGKERELVAAITGRGGRTYYADSVKGRFTISRDNAKNTVYLQMNSLKPEDTAVYYCARYPSSDTYWTKYDYWGQGTQVTVSS | high polyreactivity
QVHLVESGGGLVQAGGSLRLSCAASGSTFTYYDMVWYRKAPGNETELLATIDSTTRTYYADSVKGRFTISRDNAKNTVSLQMNSLKPEETAVYYCAADLTWAYFYYLFYRYDYWGQGTQVTVSS | low polyreactivity
QVHLVESGGGLVQAGGSLRLSCAASGSTFYRYAMGWYRQAPGKEREFVAAISTRGGSTHYADSVKGRFTISRDNAKNTVYLQMNSLKPEDTAVSYCNARGYYSVPSNTGIRYYRFDYWGQGTQVTVSS | low polyreactivity
QVHLVESGGGLVQAGGSLRLSCAASGSTLYDNAMGWYRQAPGKERELVAAITRRGAGTYYADSVKGRFTISRDNAKNTVYLQMNSLKPEDTAVYYCNAGRPYFVRYYYWGHGTQVTVSS | high polyreactivity
QVHLVESGGGLVQAGGSLRLSCAASGYTFLANAMGWYSQAPGKERELVAAISSGGTTYYADSVKGRFTISRDNAKNTVYLQMNSLKPEDTAVYYCATVFRDYDFNHWGQGTQVTVSS | low polyreactivity
QVHLVESGGGLVQAGGSLRLSCAASRSTFVNYAMGWYRQAPGKERELVAGISRSGGSTYYADSVKGRFTISRDNAKNTVYLQMNSLKPDDTAVYYCAKRYGRLTRYDYWGQGTQVNVSS | high polyreactivity
QVHLVESGGGLVQAGGSLRLSCAASVFTFNSNAMGWYRQAPGKERELVAAISWSGGSTYYADSVKGRFTISRDNAKNTVYLLMNSLKPEDTAVYYCAKGYRRVYGPFYYWGQGTQLTVSS | low polyreactivity
QVHLVESGGGLVQAGGSLRLSCAATGSTFSNYAMGWNRQAPGKERELVASISNGGSTNYADSVKGRFTISRDNANNTVYLQMNSLKPVDTEVYFCIAESKAKYDYWGQGTQVSVSS | low polyreactivity

Sequence | polyreactivity (PSR sort gate)
QVHLVESGGGLVQAGGSLRLSCAATGSTFTINAMGWYRQAPGKERELVAAINDGDDTYYADSVKGRFTISRDNAKNTVYLQMNSLKPEDTAVYFCAADIIYGYEVYTYTSDYWGQGTQVTVSS | low polyreactivity
QVHLVESGGGLVQAGGSLRLSCADSGTTFHKYAMGWYRQAPGTERELVARISVGGDSTYYADSVKGRFTISRDNAKNTDYLQIISLKPEDTAVYYCAKVRYLVFLYPPRYYYWGQGTEVTVSS | low polyreactivity
QVHLVESGGGLVQAGGSLRLSCASSGSIFGPYVMGWYRQAPRKERELVAAITWNGGSTNYADSLKGRFTISRDNAKNTVYLQMNSLKPEETAVYYCNTVSWPLSSKYYYWGQGTQVSVSS | high polyreactivity
QVHLVESGGGLVQAGGSLRLSCPASGLTFYRYAMGLYRPAPGKERELVAAISSGGNTYYADSVKGRFTISRDNAKNTVYLQMNSMKPEDTAVYYCAAESYALRGHPGYYYWGQGSQVTVSS | high polyreactivity
QVHLVESGGGLVQAGGSLRLSFAASGRTFRGNDMGWYRQAPGKERELVATITRNGGSTRYADSVKGRFTISRDNAKNNVYLQMNSLKPEDSAVYYCNARSRYFGYDYWGQGTQVTVSS | high polyreactivity
QVHLVESGGGLVQAGGSLRLSFAAYGSIFIQYVMGWYRQAPGKERELVAAISRRGGSTYYADSVKGRFTISRDNAKNTVYLHMNSLKPEDTAVYYCAAGSAYSIGYYWGQGTQVTVSS | high polyreactivity
QVHLVESGGGLVQAGGSLRLSSAASGRNFFNYAMGWYRQAPGKERELVAAISTGGSTTYADSVKGRFTISRDNAKNTVYLQMNSLKPEDTAVYYCARRGRRYRQYSRYYYWGQGTQVTVSS | high polyreactivity
QVHLVESGGGLVQAGGSLRLSSAASGSIFDSNAMGWYRQAPGKERELVAAINSTDITKYADSVKGRFTISRDNAKNTVYLQMNSLKPEDTAVYYCAKDQSLTYSSLWGYDYWGQGTQVTVSS | low polyreactivity
QVHLVESGGGLVQAGGSLRLSSAASGSTFDYYAMGWYRQAPGKERELVAAISVGGGGTTYADSVKGRFTISRDNAKNTVYFQMNCLNPEDTAVYYCAARYRTRKRPGSKYYYWGQGTQVTVSS | high polyreactivity
QVHLVESGGGLVQAGGSLRLTCAASGSIFTVYALGWYRQAPGKERELVAAITRNGGRTYYADSVKGRFTISRDNAKNTVYLQMNSLIPEDTAGYYCAAPGLYSRLDYWGQGTQVTVSS | high polyreactivity
QVHLVESGGGLVQAGGSLRLTCAASGSTFASNVMGWYRQAPGKERELVAAISRRGTRTNYADSVKGRFTISLDNAKNTVYLQMKSLKPEDTAVYYCNTASGTNVVYEFGYWGQGTQVTVSS | high polyreactivity
QVHLVESGGGLVQAGGSLSLSCAASGRNFRAYAMGWYRQAPGKETEFVAAISRSGGSTYYADSVKGRFTISRDYAKNTVYLQMHSLKPVDTAVYYCAARVRYPYRYYYWGQGTQVTVSS | high polyreactivity
QVHLVESGGGLVQAGGSRRLSCAASGRIFSRYTMGCYRQAPGKERELVAVNTSGGSTNYADSVKGRFTISRDNAKNTVYLQMNSLKPEDTAVYYCNAVRFTYGGYLRRYDYWGQGTQVTVSS | high polyreactivity
QVHLVESGGGLVQAGRSLRFSCAASGSIFGVNTMGWYRQAPGKERELDAGISSSGSSTYYADSVKGRFTISRDNAKNTVYLQMNSLKPEDTAVYDCAVRPRYYSTNMDSWGQGTQVTVSS | low polyreactivity
QVHLVESGGGLVQAGRTLRLICAASGFIFWRNTMGWYRQAPGKERELVAVITRGGSTYYADSVKGRFTLSRDNAKNTGYLQMNSLKPEDTAVYYCAARNDYYKTFSGYDYWGQGTQVTVSS | low polyreactivity
QVHLVESGGGLVQARGSLRLSCAASGITFRYYTMGLYRQAPVKERELVAVISWSGGSTYYADSVKGRFTISRDNAKNTVYFQMNSLKPEDTAVYYCAAVRRISRYDYWGQGTQVTVSS | high polyreactivity
QVHLVESGGGLVQARGSLRLSCAASGSTIYSYARGWYRQAPGKERELVAAINRSAGSTYYADSVKGRFTISRDNAKNTVYLQMTSLKPEDTAVYYCAAYASRSYGDWGQGTQVTVSS | high polyreactivity
QVHLVESGGGLVQARGTRRLSCAASGYTFPRYTMGWYRQAPGKERELVAAISGSSGSTYYADSVTGRFTISRDNATNTVYLQLNSLKPEDTAVYYCNKYYGFHKIKEYDYWGQGTQGTVSS | high polyreactivity
QVHLVESGGGLVQAVVSLRLSCAASGTTFVSYAMGWYRHATGKERELVAGISWSGTRTYYADSVKGRFTISRDNAMNTVYLQMNSLKPEDSAVYYCNAVYIYNYRTLDYWGQGTQVTVSS | high polyreactivity
QVHLVESGGGLVQPGGSLRLSCAASGSTFQTYAMVWYRQAPGKERELVAAITSGGSTNYADSVKGRFTISRDNAKNTVYLQMNSVYPEVTAVYFCAVRQIYQTSDHRLQYDYWGQGTQVTVSS | low polyreactivity
QVHLVESGGGVVQAGGSLRLSCAASGRIFHRYEMGWYRQAPVKERELVAAINWRTGNTYYADSVKGRFTISRDNAKNTVYLQMNSLKAEDTAVYYCNARYRSDYWGIQYDYWGQGTQVTVSS | high polyreactivity
